Results: article PMC4743974, “Xenobiotic Compounds Degradation by Heterologous Expression of a Trametes sanguineus Laccase in Trichoderma atroviride” (PLoS ONE, 2016)

Substrate: CCn1c(=NN=c2sc3cc(S(=O)(=O)O)ccc3n2CC)sc2cc(S(=O)(=O)O)ccc21
Test: purified protein
Assay type: biochemical, Trametes sanguinea
Conditions: 100 mM sodium succinate pH 4, room temperature (routine assay conditions)

B1: Recombinant Lcc (TaLcc3 laccase) (Trametes sanguinea) (protein)
chain: AIGPKADLVISDAVVNPDGTPRDAVVVNGAFPGPLISGKKGDHFQLNVINKLTNHTMLKTTSIHWHGLFQEHTNWADGPAFVNQCPIASGHSFLYDFHVPDQAGTYWYHSHLSTQYCDGLRGPLVVYDPHDPQAHLYDVDNDDTVITLADWYHVAAKVGPQFPRGADSTLINGRGRAASDSTAELTVITVEHGKRYRFRLVSISCDPNHTFSIDGHNMTIIEVEGVNSKPLTVDSIQIFAAQRYSFMLNANQPVDNYWIRANPSGGTVGFEGGINSAILRYKGAPDAEPTNTTAPTSVIPLVETNLHPLKPMQVPGRSGIGNVDYAKTLNFNFNGTNFFINNATFTPPTVPVLLQILSGAHSAQDLLPPGSVYTLPPHSAIEITMPATTMAPGSPHPFHLHGHVFAVVRSAGSTEYNYHDPIFRDVVSTGQPGDSVTIRFMTDNPGPWFLHCHIDFHLEAGFAIVFAEDVNEIKYANPVPPSWAELCPIYDKLPESDH
notes: full cDNA with native signal peptide (predicted cleaved between residues 20 and 21), no tag mentioned; secreted by Trichoderma atroviride IMI206040 strain Talcc3; purified; ORF 1557 bp, 519 amino acids
Protein B1 has a Km of 48.10 ± 4.9 µM, a kcat of 69.7 ± 3.47 s⁻¹ and a kcat/Km of 1.44e+06 M⁻¹ s⁻¹.
